This note sets out measurements from publication PMC5704011, “Discovery of High-Affinity PDGF-VEGFR Interactions: Redefining RTK Dynamics” (Scientific Reports, 2017).

Conditions in all cases: both partners purified
Test [1] addresses T1, human recombinant PDGFRα (human, UniProt P16234 24-528).
T1 construct: Platelet-derived growth factor receptor alpha, human; also called PDGFRa; source: bought: R&D Systems (Cat #322-PR-050/CF), human recombinant
Kind of test: SPR; BIAcore 3000, 25 °C, CM5 chip; receptor immobilised by amine coupling (~200-500 R.U.); ligand injected at 40, 20 and 10 nM in HBS-EP pH 7.4 (10 mM HEPES, 3 mM EDTA, 150 mM NaCl, 0.005% TWEEN-20); angiopoietin-4 reference cell subtracted; global 1:1 Langmuir fit; χ^2-to-Rmax < 1.0 taken as a true interaction. A general note: SPR reads the build-up and loss of mass on a sensor chip optically.

The target of another test is T2, human recombinant VEGFR2 (human, UniProt P35968 20-764).
T2 construct: Vascular endothelial growth factor receptor 2 (KDR), human; source: bought: R&D Systems (Cat. #357-KD-050/CF), human recombinant
Described as above.

The target of test [2] is T3, human recombinant PDGFRα (human, UniProt P16234 24-1089).
T3 construct: platelet-derived growth factor receptor alpha, human, recombinant; also called PDGFRa; source: bought: R&D Systems
Kind of test: SPR; BIAcore 3000, 25 °C, CM5 chip; receptor immobilised by amine coupling (~200-500 R.U.); ligand injected at 10, 20 and 40 nM, 30 uL/min, 10 min dissociation; HBS-EP pH 7.4 (10 mM HEPES, 3 mM EDTA, 150 mM NaCl, 0.005% TWEEN-20); angiopoietin-4 reference cell subtracted; global 1:1 Langmuir fit; χ2-to-Rmax > 1.0 or negative association curves taken as no true interaction.

Another test concerns the target T4, human recombinant PDGFRβ (human, UniProt P09619 33-1106).
T4 construct: platelet-derived growth factor receptor beta, human, recombinant; source: bought: R&D Systems
The description is as above.

T1 sequence (P16234 24-528): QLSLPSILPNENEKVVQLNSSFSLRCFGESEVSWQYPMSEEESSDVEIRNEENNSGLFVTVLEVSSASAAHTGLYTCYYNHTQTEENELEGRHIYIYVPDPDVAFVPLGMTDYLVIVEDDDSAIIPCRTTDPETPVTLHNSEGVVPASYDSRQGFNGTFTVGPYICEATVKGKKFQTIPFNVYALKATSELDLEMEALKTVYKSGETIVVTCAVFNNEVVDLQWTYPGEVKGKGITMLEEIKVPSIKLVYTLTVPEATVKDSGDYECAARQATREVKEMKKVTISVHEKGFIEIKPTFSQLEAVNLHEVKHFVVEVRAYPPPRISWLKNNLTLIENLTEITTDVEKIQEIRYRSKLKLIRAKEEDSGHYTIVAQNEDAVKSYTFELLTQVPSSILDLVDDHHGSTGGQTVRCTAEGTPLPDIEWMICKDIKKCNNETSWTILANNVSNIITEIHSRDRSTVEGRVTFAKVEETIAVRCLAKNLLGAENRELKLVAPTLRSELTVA
T4 sequence (P09619 33-1106): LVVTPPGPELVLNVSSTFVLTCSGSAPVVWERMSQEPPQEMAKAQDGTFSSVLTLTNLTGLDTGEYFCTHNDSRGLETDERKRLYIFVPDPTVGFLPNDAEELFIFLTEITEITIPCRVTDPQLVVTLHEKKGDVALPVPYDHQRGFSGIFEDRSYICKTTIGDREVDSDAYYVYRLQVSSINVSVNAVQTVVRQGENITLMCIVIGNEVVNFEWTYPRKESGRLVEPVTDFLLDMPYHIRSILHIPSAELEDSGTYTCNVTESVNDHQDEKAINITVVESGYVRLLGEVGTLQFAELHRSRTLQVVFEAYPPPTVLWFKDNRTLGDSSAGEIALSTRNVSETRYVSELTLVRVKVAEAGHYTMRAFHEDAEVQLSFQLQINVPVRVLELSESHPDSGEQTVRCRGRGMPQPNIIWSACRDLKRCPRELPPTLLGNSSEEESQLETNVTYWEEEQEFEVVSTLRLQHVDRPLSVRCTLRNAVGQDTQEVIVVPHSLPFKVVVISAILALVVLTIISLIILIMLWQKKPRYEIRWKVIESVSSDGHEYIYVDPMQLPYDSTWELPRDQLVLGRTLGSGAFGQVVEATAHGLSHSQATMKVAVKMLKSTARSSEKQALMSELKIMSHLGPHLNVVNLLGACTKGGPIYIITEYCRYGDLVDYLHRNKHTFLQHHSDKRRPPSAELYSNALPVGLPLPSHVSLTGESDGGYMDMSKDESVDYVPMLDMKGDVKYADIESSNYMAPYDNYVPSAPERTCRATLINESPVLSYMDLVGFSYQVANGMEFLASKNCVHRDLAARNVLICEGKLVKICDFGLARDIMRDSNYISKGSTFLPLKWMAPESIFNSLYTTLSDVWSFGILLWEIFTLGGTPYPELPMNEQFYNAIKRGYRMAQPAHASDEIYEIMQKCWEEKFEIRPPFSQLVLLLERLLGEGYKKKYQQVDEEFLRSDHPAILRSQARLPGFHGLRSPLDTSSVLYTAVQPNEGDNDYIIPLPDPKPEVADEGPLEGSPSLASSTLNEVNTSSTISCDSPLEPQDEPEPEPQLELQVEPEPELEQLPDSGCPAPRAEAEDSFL
T3 sequence (P16234 24-1089): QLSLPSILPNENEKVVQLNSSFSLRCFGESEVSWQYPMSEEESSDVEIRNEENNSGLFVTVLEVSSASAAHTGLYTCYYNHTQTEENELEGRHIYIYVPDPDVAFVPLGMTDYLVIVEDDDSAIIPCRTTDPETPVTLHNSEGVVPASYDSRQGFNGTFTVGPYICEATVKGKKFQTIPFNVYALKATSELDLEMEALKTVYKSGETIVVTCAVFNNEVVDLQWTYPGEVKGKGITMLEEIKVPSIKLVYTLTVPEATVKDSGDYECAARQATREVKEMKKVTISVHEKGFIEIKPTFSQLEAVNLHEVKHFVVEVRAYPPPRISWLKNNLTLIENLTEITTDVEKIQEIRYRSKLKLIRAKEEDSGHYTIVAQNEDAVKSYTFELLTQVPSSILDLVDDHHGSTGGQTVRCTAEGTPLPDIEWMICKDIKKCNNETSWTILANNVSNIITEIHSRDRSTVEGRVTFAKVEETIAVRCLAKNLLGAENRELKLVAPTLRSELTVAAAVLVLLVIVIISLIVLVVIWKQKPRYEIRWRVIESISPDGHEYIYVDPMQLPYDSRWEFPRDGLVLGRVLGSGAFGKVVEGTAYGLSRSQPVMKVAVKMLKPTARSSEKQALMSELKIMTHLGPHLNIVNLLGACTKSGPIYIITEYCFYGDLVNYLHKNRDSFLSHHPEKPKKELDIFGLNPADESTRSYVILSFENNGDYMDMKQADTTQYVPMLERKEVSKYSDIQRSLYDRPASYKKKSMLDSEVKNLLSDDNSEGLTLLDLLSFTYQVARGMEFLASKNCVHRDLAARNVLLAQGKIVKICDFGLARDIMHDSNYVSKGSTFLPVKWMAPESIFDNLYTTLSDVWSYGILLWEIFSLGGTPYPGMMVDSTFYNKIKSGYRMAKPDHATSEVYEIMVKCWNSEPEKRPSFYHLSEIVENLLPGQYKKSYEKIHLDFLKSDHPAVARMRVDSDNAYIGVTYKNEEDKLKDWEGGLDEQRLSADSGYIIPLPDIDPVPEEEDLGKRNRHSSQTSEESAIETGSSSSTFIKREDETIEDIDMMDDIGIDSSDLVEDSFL
T2 sequence (P35968 20-764): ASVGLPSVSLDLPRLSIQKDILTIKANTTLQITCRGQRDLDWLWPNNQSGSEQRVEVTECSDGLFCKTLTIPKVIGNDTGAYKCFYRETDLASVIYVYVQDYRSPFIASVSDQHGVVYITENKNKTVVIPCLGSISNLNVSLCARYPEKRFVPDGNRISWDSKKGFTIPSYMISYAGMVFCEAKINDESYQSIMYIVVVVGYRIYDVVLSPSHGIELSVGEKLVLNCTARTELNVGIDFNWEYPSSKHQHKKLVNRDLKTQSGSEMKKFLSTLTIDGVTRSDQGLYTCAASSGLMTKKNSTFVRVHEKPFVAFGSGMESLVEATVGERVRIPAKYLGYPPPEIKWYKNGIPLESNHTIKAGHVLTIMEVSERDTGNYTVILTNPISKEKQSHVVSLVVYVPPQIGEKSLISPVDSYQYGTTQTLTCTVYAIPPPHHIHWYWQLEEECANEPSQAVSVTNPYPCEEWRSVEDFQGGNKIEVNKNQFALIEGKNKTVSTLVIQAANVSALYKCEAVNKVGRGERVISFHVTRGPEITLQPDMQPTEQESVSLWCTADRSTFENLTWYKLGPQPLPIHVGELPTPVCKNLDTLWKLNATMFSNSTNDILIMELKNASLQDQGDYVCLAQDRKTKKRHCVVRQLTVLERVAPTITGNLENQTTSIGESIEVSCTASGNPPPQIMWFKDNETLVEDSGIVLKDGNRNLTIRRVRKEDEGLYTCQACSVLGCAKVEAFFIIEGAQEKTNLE

B1: human recombinant PDGF-BB (ligand, UniProt P01127 82-190, looked up)
chain: SLGSLTIAEPAMIAECKTRTEVFEISRRLIDRTNANFLVWPPCVEVQRCSGCCNNRNVQCRPTQVQLRPVQVRKIEIVRKKPIFKKATVTLEDHLACKCETVAAARPVT
notes: Platelet-derived growth factor subunit B, human; Homodimer of B chains by its name; source: bought: R&D Systems (Cat. #220-BB-050), human recombinant
On to B1, for which the Kd (in general, the concentration at which binding is half-saturated) with human recombinant PDGFRα [1] was found to be 420 nM; in the test with human recombinant VEGFR2, 37 nM.

B2: human recombinant PDGF-CC (ligand)
chain: VVDLNLLTEEVRLYSCTPRNFSVSIREELKRTDTIFWPGCLLVKRCGGNCACCLHNCNECQCVPSKVTKKYHEVLQLRPKTGVRGLHKSLTDVALEHHEECDCVCRGSTGG
modifications: disulfide-linked homodimer; limits not given, active growth factor domain after cleavage at Arg234 taken by convention
B2: in the test with human recombinant PDGFRα [2], the koff (as a rule, the first-order rate constant of dissociation) worked out at 0.0002 s⁻¹ and the kon (commonly the rate constant with which the complex forms) was 5000 M⁻¹ s⁻¹. Further, in the test with human recombinant PDGFRβ, the koff worked out at 0.0014 s⁻¹ and the kon amounted to 740000 M⁻¹ s⁻¹.

B3: human recombinant PDGF-CC (ligand, UniProt Q9NRA1 235-345, looked up)
chain: VVDLNLLTEEVRLYSCTPRNFSVSIREELKRTDTIFWPGCLLVKRCGGNCACCLHNCNECQCVPSKVTKKYHEVLQLRPKTGVRGLHKSLTDVALEHHEECDCVCRGSTGG
notes: Platelet-derived growth factor C, human; Homodimer by its name; source: bought: R&D Systems (Cat. #1687-CC-025), human recombinant
In the case of B3, the Kd with human recombinant PDGFRα [1] is 3.4 nM.
